One assay addresses T1, human PAC1 receptor (human, UniProt P41586 21-468).
T1 sequence: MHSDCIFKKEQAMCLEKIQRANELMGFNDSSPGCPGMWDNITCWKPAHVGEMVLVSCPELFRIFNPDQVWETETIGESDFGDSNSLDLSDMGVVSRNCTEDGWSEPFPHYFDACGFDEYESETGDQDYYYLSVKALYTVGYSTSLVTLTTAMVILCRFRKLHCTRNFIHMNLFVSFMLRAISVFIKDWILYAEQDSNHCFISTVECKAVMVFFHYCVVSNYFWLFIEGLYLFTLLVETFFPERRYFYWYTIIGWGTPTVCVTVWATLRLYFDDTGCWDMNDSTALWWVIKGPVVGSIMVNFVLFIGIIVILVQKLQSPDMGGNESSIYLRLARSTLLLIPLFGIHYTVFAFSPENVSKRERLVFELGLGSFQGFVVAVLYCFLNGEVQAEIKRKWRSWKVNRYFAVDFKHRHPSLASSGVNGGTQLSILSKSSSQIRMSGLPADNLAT
The assay can be described thus: cell-based or functional assay.

The target in a further assay is human CGRP receptor (human, UniProt Q16602 23-461; O60894 27-148). Description: cell-based or functional assay.
human CGRP receptor, sequence (Q16602 23-461 limits assumed, chain 1 of 2): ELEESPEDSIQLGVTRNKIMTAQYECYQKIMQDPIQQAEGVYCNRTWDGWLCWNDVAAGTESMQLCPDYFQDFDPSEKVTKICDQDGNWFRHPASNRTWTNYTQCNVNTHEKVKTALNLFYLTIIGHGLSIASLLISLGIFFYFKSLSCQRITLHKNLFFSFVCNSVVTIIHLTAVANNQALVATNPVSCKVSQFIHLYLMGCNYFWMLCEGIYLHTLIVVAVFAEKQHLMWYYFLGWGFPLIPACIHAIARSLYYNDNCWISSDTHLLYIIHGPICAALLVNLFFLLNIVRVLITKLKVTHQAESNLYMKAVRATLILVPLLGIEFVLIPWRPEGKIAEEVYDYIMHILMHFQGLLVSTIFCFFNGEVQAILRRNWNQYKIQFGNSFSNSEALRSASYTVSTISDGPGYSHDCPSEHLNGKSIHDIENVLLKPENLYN
human CGRP receptor, sequence (O60894 27-148 limits assumed, chain 2 of 2): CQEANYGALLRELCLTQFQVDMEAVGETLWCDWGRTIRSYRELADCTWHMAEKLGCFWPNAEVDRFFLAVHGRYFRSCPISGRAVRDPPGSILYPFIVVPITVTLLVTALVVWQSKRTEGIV

B1: iPS:392475 (bispecific antibody, human IgG1, kappa, lambda, N297G)
light: DIQLTQSPSFLSASVGDRVTITCRASQSIGRSLHWYQQKPGKAPKLLIKYASQSLSGVPSRFSGSGSGTEFTLTISSLQPEDFATYYCHQSSRLPFTFGPGTKVDIKRTVAAPSVFIFPPSDEQLKSGTASVVCLLNNFYPREAKVQWKVDNALQSGNSQESVTEQDSKDSTYSLESTLTLSKADYEKHKVYACEVTHQGLSSPVTKSFNRGEC
heavy: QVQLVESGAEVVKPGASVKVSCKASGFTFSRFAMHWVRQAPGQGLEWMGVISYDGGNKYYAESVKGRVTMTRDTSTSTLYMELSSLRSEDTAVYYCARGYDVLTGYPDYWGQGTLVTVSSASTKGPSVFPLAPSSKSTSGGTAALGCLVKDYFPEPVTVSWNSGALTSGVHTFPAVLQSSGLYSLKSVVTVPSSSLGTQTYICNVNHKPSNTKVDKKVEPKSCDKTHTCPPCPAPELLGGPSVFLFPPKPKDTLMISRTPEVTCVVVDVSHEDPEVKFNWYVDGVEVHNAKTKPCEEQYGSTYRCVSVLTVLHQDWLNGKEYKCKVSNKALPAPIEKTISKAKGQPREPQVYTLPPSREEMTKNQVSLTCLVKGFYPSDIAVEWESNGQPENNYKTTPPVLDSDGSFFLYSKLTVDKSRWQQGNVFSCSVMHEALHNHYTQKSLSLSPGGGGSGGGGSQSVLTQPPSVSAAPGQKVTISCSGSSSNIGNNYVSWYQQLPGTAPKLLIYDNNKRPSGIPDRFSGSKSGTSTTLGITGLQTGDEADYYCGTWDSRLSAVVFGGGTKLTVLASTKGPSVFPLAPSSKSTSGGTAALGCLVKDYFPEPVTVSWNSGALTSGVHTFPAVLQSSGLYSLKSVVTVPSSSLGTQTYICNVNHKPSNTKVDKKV
chain: QVQLVESGGGVVQPGRSLRLSCAASGFTFSSFGMHWVRQAPGKGLEWVAVISFDGSIKYSVDSVKGRFTISRDNSKNTLFLQMNSLRAEDTAVYYCARDRLNYYESSGYYHYKYYGMAVWGQGTTVTVSSGQPKANPTVTLFPPSSEELQANKATLVCLISDFYPGAVTVAWKADGSPVKAGVETTKPSKQSNNKYAAESYLSLTPEQWKSHRSYSCQVTHEGSTVEKTVAPTECS
On to B1, for which, in the assay with human PAC1 receptor, the “Human PAC1 Receptor IC50” value is 4.78 nM. Further, the “Human CGRP Receptor IC50” value with human CGRP receptor is 20.4 nM.

B2: iPS:392517 (bispecific antibody, human IgG1, kappa, lambda, N297G)
light: DIQLTQSPSFLSASVGDRVTITCRASQSIGRSLHWYQEKPGKAPKLLIKYASQSLSGVPSRFSGSGSGTEFTLTISSLQPEDFATYYCHQSSRLPFTFGPGTKVDIKRTVAAPSVFIFPPSDEQLKSGTASVVCLLNNFYPREAKVQWKVDNALQSGNSQESVTEQDSKDSTYSLESTLTLSKADYEKHKVYACEVTHQGLSSPVTKSFNRGEC
heavy: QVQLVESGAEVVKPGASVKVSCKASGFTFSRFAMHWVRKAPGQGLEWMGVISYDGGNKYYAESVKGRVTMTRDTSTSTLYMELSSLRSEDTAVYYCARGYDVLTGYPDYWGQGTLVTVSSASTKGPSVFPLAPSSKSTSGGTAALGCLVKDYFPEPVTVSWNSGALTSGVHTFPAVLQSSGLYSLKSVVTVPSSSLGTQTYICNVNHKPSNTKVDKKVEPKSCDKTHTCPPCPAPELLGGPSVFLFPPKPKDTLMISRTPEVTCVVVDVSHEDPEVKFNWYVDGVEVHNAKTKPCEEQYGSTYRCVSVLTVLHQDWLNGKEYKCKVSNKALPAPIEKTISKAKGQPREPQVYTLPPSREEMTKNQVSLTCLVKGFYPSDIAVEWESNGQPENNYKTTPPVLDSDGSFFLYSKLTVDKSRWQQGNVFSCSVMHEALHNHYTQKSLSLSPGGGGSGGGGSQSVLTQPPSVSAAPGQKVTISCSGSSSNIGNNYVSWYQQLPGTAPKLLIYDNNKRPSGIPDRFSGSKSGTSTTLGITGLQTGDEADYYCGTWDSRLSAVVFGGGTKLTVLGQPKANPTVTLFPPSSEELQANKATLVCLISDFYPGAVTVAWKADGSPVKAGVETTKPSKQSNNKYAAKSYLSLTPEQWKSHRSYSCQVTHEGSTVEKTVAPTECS
chain: QVQLVESGGGVVQPGRSLRLSCAASGFTFSSFGMHWVRQAPGKGLEWVAVISFDGSIKYSVDSVKGRFTISRDNSKNTLFLQMNSLRAEDTAVYYCARDRLNYYDSSGYYHYKYYGMAVWGQGTTVTVSSASTKGPSVFPLAPSSKSTSGGTAALGCLVKDYFPEPVTVSWNSGALTSGVHTFPAVLQSSGLYSLESVVTVPSSSLGTQTYICNVNHKPSNTKVDKKV
On to B2, for which, in the assay with human PAC1 receptor, the “Human PAC1 Receptor IC50 (nM), lot #1” value was found to be 2.48 nM and the “Human PAC1 Receptor IC50 (nM), lot #2” value turned out to be 7.75 nM. In addition, in the assay with human CGRP receptor, the “Human CGRP Receptor IC50 (nM), lot #1” value was 10.9 nM and the “Human CGRP Receptor IC50 (nM), lot #2” value stood at 11.5 nM.

B3: iPS:392513 (bispecific antibody, human IgG1, kappa, lambda, N297G)
light: DIQLTQSPSFLSASVGDRVTITCRASQSIGRSLHWYQQKPGKAPKLLIKYASQSLSGVPSRFSGSGSGTEFTLTISSLQPEDFATYYCHQSSRLPFTFGPGTKVDIKRTVAAPSVFIFPPSDEQLKSGTASVVCLLNNFYPREAKVQWKVDNALQSGNSQESVTEQDSKDSTYSLESTLTLSKADYEKHKVYACEVTHQGLSSPVTKSFNRGEC
heavy: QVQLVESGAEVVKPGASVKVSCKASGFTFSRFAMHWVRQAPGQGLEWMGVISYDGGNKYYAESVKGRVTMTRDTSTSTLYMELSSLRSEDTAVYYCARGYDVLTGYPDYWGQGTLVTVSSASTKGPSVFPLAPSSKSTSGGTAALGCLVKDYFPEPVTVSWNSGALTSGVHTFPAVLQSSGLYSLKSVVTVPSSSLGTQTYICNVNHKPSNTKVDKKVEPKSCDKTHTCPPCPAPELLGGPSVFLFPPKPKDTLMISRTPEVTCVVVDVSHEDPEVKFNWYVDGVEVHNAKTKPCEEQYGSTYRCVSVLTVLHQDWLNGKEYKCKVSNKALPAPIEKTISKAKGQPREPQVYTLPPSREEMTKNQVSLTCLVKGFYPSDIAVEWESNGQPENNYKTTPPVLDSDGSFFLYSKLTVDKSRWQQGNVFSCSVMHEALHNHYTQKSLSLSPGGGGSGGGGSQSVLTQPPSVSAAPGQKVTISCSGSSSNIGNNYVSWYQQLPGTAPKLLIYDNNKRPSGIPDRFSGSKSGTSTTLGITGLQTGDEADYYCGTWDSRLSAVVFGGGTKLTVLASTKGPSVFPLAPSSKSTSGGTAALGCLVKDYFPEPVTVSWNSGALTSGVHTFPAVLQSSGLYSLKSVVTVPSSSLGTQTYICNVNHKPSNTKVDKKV
chain: QVQLVESGGGVVQPGRSLRLSCAASGFTFSSFGMHWVRQAPGKGLEWVAVISFDGSIKYSVDSVKGRFTISRDNSKNTLFLQMNSLRAEDTAVYYCARDRLNYYDSSGYYHYKYYGMAVWGQGTTVTVSSGQPKANPTVTLFPPSSEELQANKATLVCLISDFYPGAVTVAWKADGSPVKAGVETTKPSKQSNNKYAAESYLSLTPEQWKSHRSYSCQVTHEGSTVEKTVAPTECS
With B3, in the assay with human PAC1 receptor, the “Human PAC1 Receptor IC50” value came out at 2.7 nM. In addition, in the assay with human CGRP receptor, the “Human CGRP Receptor IC50” value turned out to be 60.2 nM.

B4: iPS:392516 (bispecific antibody, human IgG1, kappa, lambda, N297G)
light: DIQLTQSPSFLSASVGDRVTITCRASQSIGRSLHWYQQKPGKAPKLLIKYASQSLSGVPSRFSGSGSGTEFTLTISSLQPEDFATYYCHQSSRLPFTFGPGTKVDIKRTVAAPSVFIFPPSDEQLKSGTASVVCLLNNFYPREAKVQWKVDNALQSGNSQESVTEQDSKDSTYSLESTLTLSKADYEKHKVYACEVTHQGLSSPVTKSFNRGEC
heavy: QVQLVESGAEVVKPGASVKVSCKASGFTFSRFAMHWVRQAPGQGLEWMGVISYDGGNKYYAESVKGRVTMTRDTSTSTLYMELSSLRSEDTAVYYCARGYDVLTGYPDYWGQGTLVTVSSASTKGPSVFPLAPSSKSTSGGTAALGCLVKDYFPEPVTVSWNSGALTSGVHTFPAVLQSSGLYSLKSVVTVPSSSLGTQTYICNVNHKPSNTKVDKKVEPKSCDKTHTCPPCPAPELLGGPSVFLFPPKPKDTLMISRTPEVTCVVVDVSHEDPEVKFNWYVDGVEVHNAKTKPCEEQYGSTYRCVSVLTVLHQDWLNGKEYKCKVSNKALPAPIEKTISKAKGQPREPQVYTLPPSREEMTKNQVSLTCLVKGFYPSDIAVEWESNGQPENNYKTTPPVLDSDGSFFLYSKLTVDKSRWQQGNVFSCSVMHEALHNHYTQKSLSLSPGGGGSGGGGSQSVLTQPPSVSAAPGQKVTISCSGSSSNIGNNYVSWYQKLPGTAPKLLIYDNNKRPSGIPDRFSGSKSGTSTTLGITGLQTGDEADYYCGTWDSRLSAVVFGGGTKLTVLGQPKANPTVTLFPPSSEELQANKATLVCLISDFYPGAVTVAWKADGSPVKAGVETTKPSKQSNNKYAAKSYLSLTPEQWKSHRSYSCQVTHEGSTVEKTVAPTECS
chain: QVQLVESGGGVVQPGRSLRLSCAASGFTFSSFGMHWVREAPGKGLEWVAVISFDGSIKYSVDSVKGRFTISRDNSKNTLFLQMNSLRAEDTAVYYCARDRLNYYDSSGYYHYKYYGMAVWGQGTTVTVSSASTKGPSVFPLAPSSKSTSGGTAALGCLVKDYFPEPVTVSWNSGALTSGVHTFPAVLQSSGLYSLESVVTVPSSSLGTQTYICNVNHKPSNTKVDKKV
For B4, the “Human PAC1 Receptor IC50” value with human PAC1 receptor was determined as 9.3 nM. The “Human CGRP Receptor IC50” value with human CGRP receptor is 27.9 nM.

B5: iPS:392518 (bispecific antibody, human IgG1, kappa, lambda, N297G)
light: DIQLTQSPSFLSASVGDRVTITCRASQSIGRSLHWYQEKPGKAPKLLIKYASQSLSGVPSRFSGSGSGTEFTLTISSLQPEDFATYYCHQSSRLPFTFGPGTKVDIKRTVAAPSVFIFPPSDEQLKSGTASVVCLLNNFYPREAKVQWKVDNALQSGNSQESVTEQDSKDSTYSLESTLTLSKADYEKHKVYACEVTHQGLSSPVTKSFNRGEC
heavy: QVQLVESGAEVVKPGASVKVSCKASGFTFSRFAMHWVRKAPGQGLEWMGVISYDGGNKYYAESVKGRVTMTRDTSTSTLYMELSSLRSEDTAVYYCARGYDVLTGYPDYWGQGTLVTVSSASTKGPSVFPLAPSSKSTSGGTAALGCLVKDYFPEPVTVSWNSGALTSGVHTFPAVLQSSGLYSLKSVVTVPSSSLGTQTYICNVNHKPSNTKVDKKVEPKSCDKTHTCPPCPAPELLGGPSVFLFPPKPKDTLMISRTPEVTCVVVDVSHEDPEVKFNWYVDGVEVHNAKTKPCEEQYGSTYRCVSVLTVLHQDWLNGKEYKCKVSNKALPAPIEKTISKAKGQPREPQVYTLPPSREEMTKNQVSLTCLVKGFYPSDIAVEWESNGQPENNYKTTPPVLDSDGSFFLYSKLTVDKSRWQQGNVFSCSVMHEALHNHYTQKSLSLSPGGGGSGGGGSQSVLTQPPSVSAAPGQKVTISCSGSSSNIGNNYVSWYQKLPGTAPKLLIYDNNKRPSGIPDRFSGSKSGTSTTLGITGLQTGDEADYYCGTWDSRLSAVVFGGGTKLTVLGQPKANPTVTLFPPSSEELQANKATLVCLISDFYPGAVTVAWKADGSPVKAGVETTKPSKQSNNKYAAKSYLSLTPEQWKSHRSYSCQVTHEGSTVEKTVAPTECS
chain: QVQLVESGGGVVQPGRSLRLSCAASGFTFSSFGMHWVREAPGKGLEWVAVISFDGSIKYSVDSVKGRFTISRDNSKNTLFLQMNSLRAEDTAVYYCARDRLNYYDSSGYYHYKYYGMAVWGQGTTVTVSSASTKGPSVFPLAPSSKSTSGGTAALGCLVKDYFPEPVTVSWNSGALTSGVHTFPAVLQSSGLYSLESVVTVPSSSLGTQTYICNVNHKPSNTKVDKKV
As for B5, the “Human PAC1 Receptor IC50” value in the assay with human PAC1 receptor worked out at 3.4 nM. In addition, in the assay with human CGRP receptor, the “Human CGRP Receptor IC50” value turned out to be 17.8 nM.

B6: iPS:392515 (bispecific antibody, human IgG1, kappa, lambda, N297G)
light: DIQLTQSPSFLSASVGDRVTITCRASQSIGRSLHWYQQKPGKAPKLLIKYASQSLSGVPSRFSGSGSGTEFTLTISSLQPEDFATYYCHQSSRLPFTFGPGTKVDIKRTVAAPSVFIFPPSDEQLKSGTASVVCLLNNFYPREAKVQWKVDNALQSGNSQESVTEQDSKDSTYSLESTLTLSKADYEKHKVYACEVTHQGLSSPVTKSFNRGEC
heavy: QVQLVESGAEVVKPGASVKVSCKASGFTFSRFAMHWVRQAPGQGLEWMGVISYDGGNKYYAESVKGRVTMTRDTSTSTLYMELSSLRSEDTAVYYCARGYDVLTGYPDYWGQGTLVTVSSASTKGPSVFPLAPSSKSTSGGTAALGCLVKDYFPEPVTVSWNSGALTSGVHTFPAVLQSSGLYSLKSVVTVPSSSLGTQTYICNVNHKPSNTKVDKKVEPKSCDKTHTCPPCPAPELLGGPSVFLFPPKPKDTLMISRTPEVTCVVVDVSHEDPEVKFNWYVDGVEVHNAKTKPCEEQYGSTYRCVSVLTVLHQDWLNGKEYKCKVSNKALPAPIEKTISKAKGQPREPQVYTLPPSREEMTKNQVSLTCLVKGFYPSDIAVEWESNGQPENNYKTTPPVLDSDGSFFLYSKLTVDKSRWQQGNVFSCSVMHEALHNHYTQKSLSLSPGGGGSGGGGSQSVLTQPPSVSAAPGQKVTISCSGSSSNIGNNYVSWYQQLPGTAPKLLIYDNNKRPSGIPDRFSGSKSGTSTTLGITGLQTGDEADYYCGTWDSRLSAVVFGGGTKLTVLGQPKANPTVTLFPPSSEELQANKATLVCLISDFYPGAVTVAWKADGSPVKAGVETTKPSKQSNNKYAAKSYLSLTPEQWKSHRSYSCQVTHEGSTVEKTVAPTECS
chain: QVQLVESGGGVVQPGRSLRLSCAASGFTFSSFGMHWVRQAPGKGLEWVAVISFDGSIKYSVDSVKGRFTISRDNSKNTLFLQMNSLRAEDTAVYYCARDRLNYYDSSGYYHYKYYGMAVWGQGTTVTVSSASTKGPSVFPLAPSSKSTSGGTAALGCLVKDYFPEPVTVSWNSGALTSGVHTFPAVLQSSGLYSLESVVTVPSSSLGTQTYICNVNHKPSNTKVDKKV
Turning to B6, in the assay with human PAC1 receptor, the “Human PAC1 Receptor IC50” value was determined as 2.66 nM. In the assay with human CGRP receptor, the “Human CGRP Receptor IC50” value was 12.9 nM.

B7: iPS:392519 (bispecific antibody, human IgG1, kappa, lambda, N297G)
light: DIQLTQSPSFLSASVGDRVTITCRASQSIGRSLHWYQQKPGKAPKLLIKYASQSLSGVPSRFSGSGSGTEFTLTISSLQPEDFATYYCHQSSRLPFTFGPGTKVDIKRTVAAPSVFIFPPSDEQLKSGTASVVCLLNNFYPREAKVQWKVDNALQSGNSQESVTEQDSKDSTYSLESTLTLSKADYEKHKVYACEVTHQGLSSPVTKSFNRGEC
heavy: not shown
chain: QVQLVESGGGVVQPGRSLRLSCAASGFTFSSFGMHWVREAPGKGLEWVAVISFDGSIKYSVDSVKGRFTISRDNSKNTLFLQMNSLRAEDTAVYYCARDRLNYYESSGYYHYKYYGMAVWGQGTTVTVSSGQPKANPTVTLFPPSSEELQANKATLVCLISDFYPGAVTVAWKADGSPVKAGVETTKPSKQSNNKYAAESYLSLTPEQWKSHRSYSCQVTHEGSTVEKTVAPTECS
In the case of B7, the “Human PAC1 Receptor IC50” value with human PAC1 receptor came to 6.87 nM. Further, in the assay with human CGRP receptor, the “Human CGRP Receptor IC50” value amounted to 81.3 nM.

B8: iPS:392514 (bispecific antibody, human IgG1, kappa, lambda, N297G)
light: DIQLTQSPSFLSASVGDRVTITCRASQSIGRSLHWYQQKPGKAPKLLIKYASQSLSGVPSRFSGSGSGTEFTLTISSLQPEDFATYYCHQSSRLPFTFGPGTKVDIKRTVAAPSVFIFPPSDEQLKSGTASVVCLLNNFYPREAKVQWKVDNALQSGNSQESVTEQDSKDSTYSLESTLTLSKADYEKHKVYACEVTHQGLSSPVTKSFNRGEC
heavy: not shown
chain: QVQLVESGGGVVQPGRSLRLSCAASGFTFSSFGMHWVREAPGKGLEWVAVISFDGSIKYSVDSVKGRFTISRDNSKNTLFLQMNSLRAEDTAVYYCARDRLNYYDSSGYYHYKYYGMAVWGQGTTVTVSSGQPKANPTVTLFPPSSEELQANKATLVCLISDFYPGAVTVAWKADGSPVKAGVETTKPSKQSNNKYAAESYLSLTPEQWKSHRSYSCQVTHEGSTVEKTVAPTECS
On to B8, for which, in the assay with human PAC1 receptor, the “Human PAC1 Receptor IC50” value worked out at 4.69 nM. Besides, the “Human CGRP Receptor IC50” value with human CGRP receptor is 54 nM.
